{"source": "paper doi:10.1101/2020.08.02.233536", "about": "(bioRxiv, 2020)", "biological_target": "His-tagged SARS-CoV-2 RBD protein (binding studies) (SARS-CoV-2, UniProt P0DTC2)", "experiment": "BLI", "settings": "both partners purified"}
{"binder": " (antibody, V domains shown, also called somatic revertant VH R100bS) VH: QVQLVQSGAEVKKPGASVKVSCKASGYTFTSYYMHWVRQAPGQGLEWMGIINSSGGSTSYAQKFQGRVTMTRDTSTSTVYMELSSLRSEDTAVYYCARPPRNYYDSSGYYQRAEYFQHWGQGTLVTVSS VL: DIQLTQSPSSLSASVGDRVTITCQASQDISNYLNWYQQRPGKAPKLLIYDASNLETGVPSRFSGSGSGTDFTFTISSLQPEDIATYYCQQYDNPPLTFGGGTKLEIK", "values": [{"measurement": "binding result", "result": "binds"}]}
